Data reported in patent US20150246949A1, “Desmoglein 2 (DSG2) Binding Proteins and Uses Therefor” (UNIVERSITY OF WASHINGTON THROUGH ITS CENTER FOR …, priority 2012, published 2015).
Positions count from the first letter of the chain named. Names and notes keep the numbering of the source.

T1: human DSG2 on cells (HeLa cells; polarized T84 cells) (human, UniProt Q14126 50-1118)
T1 construct: whole, on cells; also called HeLa cells, which express DSG2
T1 sequence: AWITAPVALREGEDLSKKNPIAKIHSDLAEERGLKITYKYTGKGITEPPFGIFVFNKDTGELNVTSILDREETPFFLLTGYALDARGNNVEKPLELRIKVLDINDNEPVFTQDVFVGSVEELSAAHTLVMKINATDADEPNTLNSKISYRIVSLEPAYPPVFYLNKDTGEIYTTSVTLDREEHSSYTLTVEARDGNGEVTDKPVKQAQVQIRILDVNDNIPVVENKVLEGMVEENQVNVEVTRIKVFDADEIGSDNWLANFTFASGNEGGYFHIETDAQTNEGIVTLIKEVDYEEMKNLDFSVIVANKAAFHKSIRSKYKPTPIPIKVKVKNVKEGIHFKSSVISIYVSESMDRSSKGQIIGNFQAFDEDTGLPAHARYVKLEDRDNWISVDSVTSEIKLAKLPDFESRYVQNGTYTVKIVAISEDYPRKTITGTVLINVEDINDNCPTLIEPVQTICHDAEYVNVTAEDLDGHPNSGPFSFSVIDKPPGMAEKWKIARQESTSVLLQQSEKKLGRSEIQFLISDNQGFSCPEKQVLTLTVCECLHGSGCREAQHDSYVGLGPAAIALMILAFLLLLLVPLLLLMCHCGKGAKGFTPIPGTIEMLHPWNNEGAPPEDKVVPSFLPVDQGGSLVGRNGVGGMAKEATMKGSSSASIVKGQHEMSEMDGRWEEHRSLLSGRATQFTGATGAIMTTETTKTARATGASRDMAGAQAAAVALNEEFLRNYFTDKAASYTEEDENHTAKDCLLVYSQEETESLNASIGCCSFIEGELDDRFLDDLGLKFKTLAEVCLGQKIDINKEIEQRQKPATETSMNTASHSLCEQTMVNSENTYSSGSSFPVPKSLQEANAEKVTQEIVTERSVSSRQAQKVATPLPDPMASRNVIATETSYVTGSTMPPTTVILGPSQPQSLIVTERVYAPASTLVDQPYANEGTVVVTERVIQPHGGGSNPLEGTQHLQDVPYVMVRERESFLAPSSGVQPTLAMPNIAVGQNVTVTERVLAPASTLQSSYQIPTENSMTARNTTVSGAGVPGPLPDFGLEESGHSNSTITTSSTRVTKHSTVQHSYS

T2: Recombinant human DSG2 protein (Leinco Technologies) (human, UniProt Q14126 50-609)
T2 construct: also called soluble DSG2; soluble recombinant DSG2
T2 sequence: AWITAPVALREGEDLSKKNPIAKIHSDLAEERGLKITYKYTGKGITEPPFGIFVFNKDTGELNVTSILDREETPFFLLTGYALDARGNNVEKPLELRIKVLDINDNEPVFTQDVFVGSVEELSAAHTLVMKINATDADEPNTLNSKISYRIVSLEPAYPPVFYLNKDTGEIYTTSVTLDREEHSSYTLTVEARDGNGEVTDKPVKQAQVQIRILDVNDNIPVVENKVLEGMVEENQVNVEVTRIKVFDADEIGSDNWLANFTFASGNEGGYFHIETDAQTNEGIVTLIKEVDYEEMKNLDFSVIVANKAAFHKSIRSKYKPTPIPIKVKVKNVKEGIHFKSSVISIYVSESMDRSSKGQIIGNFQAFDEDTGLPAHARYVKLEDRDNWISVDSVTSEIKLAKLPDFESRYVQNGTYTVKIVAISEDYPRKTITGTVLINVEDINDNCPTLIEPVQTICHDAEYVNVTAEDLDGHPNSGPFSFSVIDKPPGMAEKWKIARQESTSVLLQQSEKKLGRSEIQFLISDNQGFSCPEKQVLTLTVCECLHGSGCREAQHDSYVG

T3: soluble recombinant DSG2 (Homo sapiens, UniProt Q14126)
T3 construct: purchased Leinco Technologies, Inc. (St. Louis, Mo.)
T3 sequence (Q14126 50-609 limits assumed): T2 sequence

B1: dimeric Ad3 fiber knob mutant D261N (designed binder)
chain: MKVSALKEKVSALKEKVSALKEKVSALKEKVSALKEGSGGGSGGGSGGGSNSIALKNNTLWTGPKPEANCIIEYGKQNPDSKLTLILVKNGGIVNGYVTLMGASDYVNTLFKNKNVSINVELYFDATGHILPDSSSLKTDLELKYKQTADFSARGFMPSTTAYPFVLPNAGTHNENYIFGQCYYKASNGALFPLEVTVMLNKRLPDSRTSYVMTFLWSLNAGLAPETTQATLITSPFTFSYIREDD
B2: N186D, D261N, L296R: dimeric Ad3 fiber knob with combination of all three N186D, D261N, and L296R (protein)
chain: B1 chain with N113D, L223R
B3: F265L (protein)
chain: B1 chain with N188D, F192L
B4: dimeric Ad3 fiber knob mutant F265L (designed binder)
chain: B1 chain with N188D, F192L

Columns and labels:
[1] = target: T1, human DSG2 on cells (HeLa cells; …); test: attachment of 3H-labelled Ad3 virus (competitor) to HeLa cells pre-incubated with the dimeric knob
[2] = target: T1, human DSG2 on cells (HeLa cells; …); test: cell-based or functional assay
[3] = target: T2, Recombinant human DSG2 protein (Leinco …); test: Western blot of dimeric knob, soluble DSG2 as probe (Table 2: 0% residual binding)
[4] = target: T2, Recombinant human DSG2 protein (Leinco …); test: Western blot of dimeric knob (trimer band), soluble recombinant DSG2 as probe, anti-DSG2 mAb
[5] = system: 3H-labeled Ad3 virus; test: Competition of 3H-labeled Ad3 virus attachment to HeLa cells; format: cell-based, adenovirus serotype 3 (Ad3)
Method: FIG. 3. Competition of Ad3 virus by dimerized Ad3 knob mutants. A) Relative attachment of ^3H-labeled Ad3 virus in the presence of dimeric fiber knob mutants. 1.8×10^5 HeLa cells were incubated with Ad3 knob mutants at a concentration of 2.5 and 100 μg/ml on ice for 1 hour. Then 400 pfu/cell of ^3H-Ad3 virus was added on ice for another hour. Unbound virus particles were washed away. Attachment of virus particles incubated with PBS was taken as 100%. N=3. B) Competition of Ad3-GFP virus infection on HeLa cells. 1.5×10^5 HeLa cells were seeded into 24 well plates. Cells were incubated with the Ad3 knob mutants at increasing concentrations for one hour at room temperature. 100 pfu/cell of Ad3-GFP virus were then added and GFP expression was analyzed 18 hours later by flow cytometry. Left panel: percentage of GFP positive cells. Right panel: mean fluorescence intensity. N=3. The standard deviation was less than 10%. C) Relative attachment of ^3H-labeled Ad3 virus in the presence of dimeric fiber knob mutants with multiple mutations. […]
HeLa cells were detached from culture dishes by incubation with Versene and washed with PBS. […] After the last wash, the supernatant was removed and the cell-associated radioactivity was determined by a scintillation counter. The number of VP bound per cell was calculated by using the virion specific radioactivity and the number of cells.

[6] = target: T3, soluble recombinant DSG2; test: Western blot of dimeric Ad3 fiber knob mutants probed with soluble DSG2; format: binding; settings: purified dimerized knob mutants
Text: FIG. 1. Residues found to be critically involved in binding to DSG2. A) Shown are the amino acid sequences of the Ad3 and Ad14p1 fiber knob. Beta sheets present in the Ad3 knob (PDB accession number 1H7Z_A) and Ad14 knob (PDB: 3F0Y_A) are indicated by lines. Black arrows indicate residues within the Ad3 fiber knob which, when mutated individually, ablate or reduce binding to DSG2. […] B) Schematic structure of dimeric Ad3 fiber knob mutants. The fiber knob domain and one shaft motif was fused through a flexible linker to a homodimerizing K-coil domain (41). The proteins are self-dimerizing and can be purified by His-Ni-NTA affinity chromatography. C-F) Analysis of binding of dimeric Ad3 fiber knob mutants to soluble DSG2. C and D) Coomassie staining. 10 μg of purified Ad3 fiber knob (unboiled) were loaded per lane. Trimeric forms of the fiber knobs are indicated by an arrow. The gel contained SDS and the loading buffer containing DTT, which caused the disassembly of dimers of trimeric fiber knobs as previously reported (41). E and F): Western blot using soluble recombinant DSG2 as a probe, followed by anti-DSG2-mAb and anti-mouse IgG-HRP. For comparison, JO-1 (0.5 μg/lane) is shown. The Western blots were scanned and signals were quantified.
Mini-PROTEAN precast gels (BIO-RAD, Hercules, Calif.) with 4-15% gradient polyacrylamide were used. A total of […] protein mixed with 2× loading buffer (10 mM Tris-HCl, pH6.8, 200 mM DTT, 4% SDS, 20% glycerol, 0.2% bromophenol blue) was loaded per lane. Samples were either boiled (B) for 5 min or loaded unboiled (UB). The following running buffer was used: 25 mM Tris, pH8.3, 0.192 M glycine, 0.1% SDS. After electrophoresis, proteins were transferred to nitrocellulose and incubated with recombinant human DSG2 protein and anti-DSG2 antibodies as described previously (42). The Western blots were scanned and quantified using the ImageJ 1.32 software (National Institutes of Health, Bethesda, Md.). JO-1 band intensity was set as 100%. […]

[7] = system: Ad3-GFP virus; test: Competition of Ad3-GFP virus infection on HeLa cells; format: cell-based, adenovirus serotype 3 (Ad3)
Method: FIG. 3. Competition of Ad3 virus by dimerized Ad3 knob mutants. A) Relative attachment of ^3H-labeled Ad3 virus in the presence of dimeric fiber knob mutants. 1.8×10^5 HeLa cells were incubated with Ad3 knob mutants at a concentration of 2.5 and 100 μg/ml on ice for 1 hour. Then 400 pfu/cell of ^3H-Ad3 virus was added on ice for another hour. Unbound virus particles were washed away. Attachment of virus particles incubated with PBS was taken as 100%. N=3. B) Competition of Ad3-GFP virus infection on HeLa cells. 1.5×10^5 HeLa cells were seeded into 24 well plates. Cells were incubated with the Ad3 knob mutants at increasing concentrations for one hour at room temperature. 100 pfu/cell of Ad3-GFP virus were then added and GFP expression was analyzed 18 hours later by flow cytometry. Left panel: percentage of GFP positive cells. Right panel: mean fluorescence intensity. N=3. The standard deviation was less than 10%. C) Relative attachment of ^3H-labeled Ad3 virus in the presence of dimeric fiber knob mutants with multiple mutations. The study was performed as described in […]) The standard deviation was less than 10%. D) Competition of Ad3-GFP virus infection on HeLa cells. The study was performed as described in C) The standard deviation was less than 10%.
FIG. 9. Analysis of dimeric Ad3 fiber knob mutants with increased affinity to DSG2. A) Competition of Ad3-GFP virus infection on HeLa cells with dimeric affinity-enhanced mutant Y250F and JO-1 (dimeric wt Ad3 fiber knob). The experimental setting is as described for FIG. 3C. left panel: percentage of GFP positive cells. Right panel: mean fluorescence intensity. N=3. The standard deviation was less than 10%. […] 100 pfu/cell of Ad3GFP virus were then added and GFP expression was analyzed 18 hours later. […]
Competition studies were performed on HeLa cells, which express DSG2 (42). […] Transduction was measured based on GFP expression (FIG. 3B). […] Dimeric Ad3 knob mutants with combined mutations were also analyzed for their ability to compete with Ad3 virus for attachment (FIG. 3C) and infection (FIG. 3D).

[8] = HeLa cells, concentrations up to 200 ug/ml

Molecule | Inhibition of attachment in the presence of dimeric knob (JO-1 = 100%) [1] [%] | Inhibition of infection in the presence of dimeric knob (JO-1 = 100%) [2] [%] | binding result [3] | Western blot residual DSG2 binding (wtAd3 knob = 100%) [4] [%] | Inhibition of attachment in the presence of dimeric knob (JO-1 = 100%) ([5]; Ad3 virus attachment to HeLa cells, N = 3) [%] | Block of Ad3 binding [5, 8] | DSG2 binding in Western blot compared to JO-1 [6] | Block of Ad3 infection [7, 8] | Competition of Ad3-GFP infection based on GFP expression ([7]; HeLa cells pre-incubated with knob, 100 pfu/cell Ad3-GFP, GFP at 18 hours)
B1 | 45 | 5.3 | no binding | 0 | – | – | – | – | –
B2 | – | – | – | – | 18.5 | did not block | highest level of ablation | did not block | –
B3 | – | – | – | – | – | – | almost completely ablated for DSG2 binding | – | least reduced
B4 | 55.6 | 17.6 | no binding | 0 | – | – | – | – | –
